According to patent US20190324040A1:

How the values were obtained:
[1] = target: Zika virus (ZIKV), whole virus particles (Zika virus); assay: P1F12-ZIKV binding inhibition ELISA (4G2-captured ZIKV); competitor: 1/10 plasma of donor 1252 (DENV+)
[2] = target: Zika virus (ZIKV), whole virus particles (Zika virus); assay: P1F12-ZIKV binding inhibition ELISA (4G2-captured ZIKV); competitor: 1/10 plasma of donor 3002 (ZIKV+)
[3] = target: Zika virus (ZIKV), whole virus particles (Zika virus); assay: P1F12-ZIKV binding inhibition ELISA (4G2-captured ZIKV); competitor: 1/10 plasma of donor hu004 (ZIKV+)
[4] = target: Zika virus (ZIKV), whole virus particles (Zika virus); assay: P1F12-ZIKV binding inhibition ELISA (4G2-captured ZIKV); competitor: 1/10 plasma of donor Class 1 (U.S. naive)
[5] = target: Zika virus (ZIKV), whole virus particles (Zika virus); assay: P1F12-ZIKV binding inhibition ELISA (4G2-captured ZIKV); competitor: 1/10 plasma of donor 1294 (DENV+)
[6] = target: Zika virus (ZIKV), whole virus particles (Zika virus); assay: P1F12-ZIKV binding inhibition ELISA (4G2-captured ZIKV); competitor: 1/10 plasma of donor 1255 (naive)
[7] = target: Zika virus (ZIKV), whole virus particles (Zika virus); assay: P1F12-ZIKV binding inhibition ELISA (4G2-captured ZIKV); competitor: 1/10 plasma of donor 1302 (ZIKV+)
[8] = target: Zika virus (ZIKV), whole virus particles (Zika virus); assay: P1F12-ZIKV binding inhibition ELISA (4G2-captured ZIKV); competitor: 1/10 plasma of donor FA2002 (YF vaccine)
[9] = target: Zika virus (ZIKV), whole virus particles (Zika virus); assay: P1F12-ZIKV binding inhibition ELISA (4G2-captured ZIKV); competitor: 1/10 plasma of donor 168 (DENV+)
[10] = target: Zika virus (ZIKV), whole virus particles (Zika virus); assay: P1F12-ZIKV binding inhibition ELISA (4G2-captured ZIKV); competitor: 1/10 plasma of donor Class 2 (U.S. naive)
[11] = target: Zika virus (ZIKV), whole virus particles (Zika virus); assay: P1F12-ZIKV binding inhibition ELISA (4G2-captured ZIKV); competitor: 1/10 plasma of donor Class 12 (U.S. naive)
[12] = target: Zika virus (ZIKV), whole virus particles (Zika virus); assay: P1F12-ZIKV binding inhibition ELISA (4G2-captured ZIKV); competitor: 1/10 plasma of donor 1273 (naive)
[13] = target: Zika virus (ZIKV), whole virus particles (Zika virus); assay: P1F12-ZIKV binding inhibition ELISA (4G2-captured ZIKV); competitor: 1/10 plasma of donor FA7006 (YF vaccine)
[14] = target: Zika virus (ZIKV), whole virus particles (Zika virus); assay: P1F12-ZIKV binding inhibition ELISA (4G2-captured ZIKV); competitor: 1/10 plasma of donor 3012 (ZIKV+)
[15] = target: Zika virus (ZIKV), whole virus particles (Zika virus); assay: cell-based or functional assay
[16] = target: Zika virus (ZIKV), whole virus particles (Zika virus); assay: P1F12-ZIKV binding inhibition ELISA (4G2-captured ZIKV); competitor: 1/10 plasma of donor FA2005 (YF vaccine)
[17] = target: Zika virus (ZIKV), whole virus particles (Zika virus); assay: P1F12-ZIKV binding inhibition ELISA (4G2-captured ZIKV); competitor: 1/10 plasma of donor 1280 (DENV+)
[18] = target: Zika virus (ZIKV), whole virus particles (Zika virus); assay: P1F12-ZIKV binding inhibition ELISA (4G2-captured ZIKV); competitor: 1/10 plasma of donor 533 (ZIKV+)
[19] = target: Zika virus (ZIKV), whole virus particles (Zika virus); assay: P1F12-ZIKV binding inhibition ELISA (4G2-captured ZIKV); competitor: 1/10 plasma of donor 1208 (DENV+)
[20] = target: Zika virus (ZIKV), whole virus particles (Zika virus); assay: P1F12-ZIKV binding inhibition ELISA (4G2-captured ZIKV); competitor: 1/10 plasma of donor Class 7 (U.S. naive)
[21] = target: Zika virus (ZIKV), whole virus particles (Zika virus); assay: P1F12-ZIKV binding inhibition ELISA (4G2-captured ZIKV); competitor: 1/10 plasma of donor Class 14 (U.S. naive)
[22] = target: Zika virus (ZIKV), whole virus particles (Zika virus); assay: P1F12-ZIKV binding inhibition ELISA (4G2-captured ZIKV); competitor: 1/10 plasma of donor 3013 (ZIKV+)
[23] = target: Zika virus (ZIKV), whole virus particles (Zika virus); assay: P1F12-ZIKV binding inhibition ELISA (4G2-captured ZIKV); competitor: 1/10 plasma of donor 152 (DENV+)
[24] = target: Zika virus (ZIKV), whole virus particles (Zika virus); assay: P1F12-ZIKV binding inhibition ELISA (4G2-captured ZIKV); competitor: 1/10 plasma of donor Class 13 (U.S. naive)
[25] = target: Zika virus (ZIKV), whole virus particles (Zika virus); assay: P1F12-ZIKV binding inhibition ELISA (4G2-captured ZIKV); competitor: 1/10 plasma of donor Class 11 (U.S. naive)
[26] = target: Zika virus (ZIKV), whole virus particles (Zika virus); assay: P1F12-ZIKV binding inhibition ELISA (4G2-captured ZIKV); competitor: 1/10 plasma of donor 801 (ZIKV+)
[27] = target: Zika virus (ZIKV), whole virus particles (Zika virus); assay: P1F12-ZIKV binding inhibition ELISA (4G2-captured ZIKV); competitor: 1/10 plasma of donor 515 (naive)
[28] = target: Zika virus (ZIKV), whole virus particles (Zika virus); assay: P1F12-ZIKV binding inhibition ELISA (4G2-captured ZIKV); competitor: 1/10 plasma of donor Class 10 (U.S. naive)
[29] = target: Zika virus (ZIKV), whole virus particles (Zika virus); assay: P1F12-ZIKV binding inhibition ELISA (4G2-captured ZIKV); competitor: 1/10 plasma of donor Class 9 (U.S. naive)
[30] = target: Zika virus (ZIKV), whole virus particles (Zika virus); assay: P1F12-ZIKV binding inhibition ELISA (4G2-captured ZIKV); competitor: 1/10 plasma of donor 1248 (DENV+)
[31] = target: Zika virus (ZIKV), whole virus particles (Zika virus); assay: P1F12-ZIKV binding inhibition ELISA (4G2-captured ZIKV); competitor: 1/10 plasma of donor 138 (DENV+)
[32] = target: Zika virus (ZIKV), whole virus particles (Zika virus); assay: P1F12-ZIKV binding inhibition ELISA (4G2-captured ZIKV); competitor: 1/10 plasma of donor Class 8 (U.S. naive)
[33] = target: Zika virus (ZIKV), whole virus particles (Zika virus); assay: P1F12-ZIKV binding inhibition ELISA (4G2-captured ZIKV); competitor: 1/10 plasma of donor Class 6 (U.S. naive)
[34] = target: Zika virus (ZIKV), whole virus particles (Zika virus); assay: P1F12-ZIKV binding inhibition ELISA (4G2-captured ZIKV); competitor: 1/10 plasma of donor 3018 (ZIKV+)
[35] = target: Zika virus (ZIKV), whole virus particles (Zika virus); assay: P1F12-ZIKV binding inhibition ELISA (4G2-captured ZIKV); competitor: 1/10 plasma of donor 1261 (naive)
[36] = target: Zika virus (ZIKV), whole virus particles (Zika virus); assay: P1F12-ZIKV binding inhibition ELISA (4G2-captured ZIKV); competitor: 1/10 plasma of donor 802 (ZIKV+)
[37] = target: Zika virus (ZIKV), whole virus particles (Zika virus); assay: P1F12-ZIKV binding inhibition ELISA (4G2-captured ZIKV); competitor: 1/10 plasma of donor Class 5 (U.S. naive)
[38] = target: Zika virus (ZIKV), whole virus particles (Zika virus); assay: P1F12-ZIKV binding inhibition ELISA (4G2-captured ZIKV); competitor: 1/10 plasma of donor 184 (DENV+)
[39] = target: Zika virus (ZIKV), whole virus particles (Zika virus); assay: P1F12-ZIKV binding inhibition ELISA (4G2-captured ZIKV); competitor: 1/10 plasma of donor Class 4 (U.S. naive)
[40] = target: Zika virus (ZIKV), whole virus particles (Zika virus); assay: P1F12-ZIKV binding inhibition ELISA (4G2-captured ZIKV); competitor: 1/10 plasma of donor Class 3 (U.S. naive)
[41] = target: Zika virus (ZIKV), whole virus particles (Zika virus); assay: virus capture ELISA
[42] = target: Zika virus (ZIKV), whole virus particles (Zika virus); assay: P1F12-ZIKV binding inhibition ELISA (4G2-captured ZIKV); competitor: 1/10 plasma of donor hu002 (U.S. naive)
[43] = target: Zika virus (ZIKV), whole virus particles (Zika virus); assay: P1F12-ZIKV binding inhibition ELISA (4G2-captured ZIKV); competitor: 1/10 plasma of donor 3004 (ZIKV+)
[44] = target: Zika virus (ZIKV), whole virus particles (Zika virus); assay: P1F12-ZIKV binding inhibition ELISA (4G2-captured ZIKV); competitor: 1/10 plasma of donor 1235 (DENV+)
[45] = target: Zika virus (ZIKV), whole virus particles (Zika virus); assay: P1F12-ZIKV binding inhibition ELISA (4G2-captured ZIKV); competitor: 1/10 plasma of donor FA2004 (YF vaccine)
[46] = target: Zika virus (ZIKV), whole virus particles (Zika virus); assay: P1F12-ZIKV binding inhibition ELISA (4G2-captured ZIKV); competitor: 1/10 plasma of donor 507 (DENV+)
[47] = target: Zika virus (ZIKV), whole virus particles (Zika virus); assay: P1F12-ZIKV binding inhibition ELISA (4G2-captured ZIKV); competitor: 1/10 plasma of donor 177 (DENV+)
[48] = target: Zika virus (ZIKV), whole virus particles (Zika virus); assay: P1F12-ZIKV binding inhibition ELISA (4G2-captured ZIKV); competitor: 1/10 plasma of donor 12 (naive)

B1: CC17 mAb (P1F12) (antibody, V domains shown)
VH: QVQLVQSGGGLVQPGGSLRLSCAASGFTFSSYWMSWVRQAPGKGLEWVANIKQDGSEKYYVDSVKGRFTISRDNAKNSLYLQMNSLRAEDTAVYYCAGNGWDDSSGYYYRNYYYGMDVWGQGTTVTVSS
VL: DIQMTQSPSSFSASTGDRVTITCRASQGISSYLAWYQQKPGKAPKLLIYAASTLQSGVPSRFSGSGSGTDFTLTISCLQSEDFATYYCQQYYSYPRTFGGGTKVDIK
P1F12-ZIKV inhibition assay (Abs450) [1]: 0.19 Abs450 | P1F12-ZIKV inhibition assay (Abs450) [2]: 0.04 Abs450 | P1F12-ZIKV inhibition assay (Abs450) [3]: 0.04 Abs450 | P1F12-ZIKV inhibition assay (Abs450) [4]: 0.323 Abs450 | P1F12-ZIKV inhibition assay (Abs450) [5]: 0.29 Abs450 | P1F12-ZIKV inhibition assay (Abs450) [6]: 0.323 Abs450 | P1F12-ZIKV inhibition assay (Abs450) [7]: 0.62 Abs450 | P1F12-ZIKV inhibition assay (Abs450) [8]: 0.319 Abs450 | P1F12-ZIKV inhibition assay (Abs450) [9]: 0.32 Abs450 | P1F12-ZIKV inhibition assay (Abs450) [10]: 0.312 Abs450 | P1F12-ZIKV inhibition assay (Abs450) [11]: 0.344 Abs450 | P1F12-ZIKV inhibition assay (Abs450) [12]: 0.395 Abs450 | P1F12-ZIKV inhibition assay (Abs450) [13]: 0.396 Abs450 | P1F12-ZIKV inhibition assay (Abs450) [14]: 0.05 Abs450 | % of Zika virus Neutralized (Vero infectivity assay), antibody at 1 µg/ml [15]: 82.3% | Neut50 [15]: 2 µg/mL | PRNT50 (plaque reduction neutralization test) [15]: 2 µg/mL | P1F12-ZIKV inhibition assay (Abs450) [16]: 0.332 Abs450 | P1F12-ZIKV inhibition assay (Abs450) [17]: 0.29 Abs450 | P1F12-ZIKV inhibition assay (Abs450) [18]: 0.03 Abs450 | P1F12-ZIKV inhibition assay (Abs450) [19]: 0.25 Abs450 | P1F12-ZIKV inhibition assay (Abs450) [20]: 0.246 Abs450 | P1F12-ZIKV inhibition assay (Abs450) [21]: 0.323 Abs450 | P1F12-ZIKV inhibition assay (Abs450) [22]: 0.03 Abs450 | P1F12-ZIKV inhibition assay (Abs450) [23]: 0.15 Abs450 | P1F12-ZIKV inhibition assay (Abs450) [24]: 0.276 Abs450 | P1F12-ZIKV inhibition assay (Abs450) [25]: 0.395 Abs450 | P1F12-ZIKV inhibition assay (Abs450) [26]: 0.04 Abs450 | P1F12-ZIKV inhibition assay (Abs450) [27]: 0.293 Abs450 | P1F12-ZIKV inhibition assay (Abs450) [28]: 0.315 Abs450 | P1F12-ZIKV inhibition assay (Abs450) [29]: 0.316 Abs450 | P1F12-ZIKV inhibition assay (Abs450) [30]: 0.36 Abs450 | P1F12-ZIKV inhibition assay (Abs450) [31]: 0.34 Abs450 | P1F12-ZIKV inhibition assay (Abs450) [32]: 0.303 Abs450 | P1F12-ZIKV inhibition assay (Abs450) [33]: 0.292 Abs450 | P1F12-ZIKV inhibition assay (Abs450) [34]: 0.04 Abs450 | P1F12-ZIKV inhibition assay (Abs450) [35]: 0.405 Abs450 | P1F12-ZIKV inhibition assay (Abs450) [36]: 0.05 Abs450 | P1F12-ZIKV inhibition assay (Abs450) [37]: 0.389 Abs450 | P1F12-ZIKV inhibition assay (Abs450) [38]: 0.26 Abs450 | P1F12-ZIKV inhibition assay (Abs450) [39]: 0.392 Abs450 | P1F12-ZIKV inhibition assay (Abs450) [40]: 0.406 Abs450 | ZIKV binding Abs 450 nm [41]: 0.17 Abs 450 nm | P1F12-ZIKV inhibition assay (Abs450) [42]: 0.57 Abs450 | P1F12-ZIKV inhibition assay (Abs450) [43]: 0.03 Abs450 | P1F12-ZIKV inhibition assay (Abs450) [44]: 0.18 Abs450 | P1F12-ZIKV inhibition assay (Abs450) [45]: 0.393 Abs450 | P1F12-ZIKV inhibition assay (Abs450) [46]: 0.28 Abs450 | P1F12-ZIKV inhibition assay (Abs450) [47]: 0.18 Abs450 | P1F12-ZIKV inhibition assay (Abs450) [48]: 0.22 Abs450
